Measured values taken from paper PMC3146575.

Columns and labels:
[1] = target: T1, hOGG1 K249Q (catalytically inactive) (human, UniProt O15527 1-345, K249Q); assay: EMSA
[2] = target: T1, hOGG1 K249Q (catalytically inactive); assay: EMSA; remark: listed apart in the source

T1 sequence (O15527 whole entry K249Q): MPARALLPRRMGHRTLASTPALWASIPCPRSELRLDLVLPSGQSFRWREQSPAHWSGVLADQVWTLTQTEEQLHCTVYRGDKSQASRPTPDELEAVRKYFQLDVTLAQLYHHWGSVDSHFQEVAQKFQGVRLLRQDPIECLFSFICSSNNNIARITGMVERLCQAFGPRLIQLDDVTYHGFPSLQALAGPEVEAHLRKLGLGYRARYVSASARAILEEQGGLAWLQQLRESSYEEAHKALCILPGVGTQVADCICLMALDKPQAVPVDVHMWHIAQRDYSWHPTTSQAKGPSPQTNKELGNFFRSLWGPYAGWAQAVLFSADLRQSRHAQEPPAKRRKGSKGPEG

| Binder | Kd [1] [nM] | binding result [2] |
| --- | --- | --- |
| Stem-DUP (dsDNA, 8-oxoG in 2nd CAG repeat (G6 of strand 1)) DNA 1: CAGCAGCAGCAGCAGCAGCAGCAGCAGCAG DNA 2: CTGCTGCTGCTGCTGCTGCTGCTGCTGCTG | 21.7 ± 6.8 | – |
| CAGCAGCAGCAGCAGCAGCAGCAGCAGCAG (structured_DNA, 8-oxoG in 5th CAG repeat (G15)) [Loop-HP] | – | no binding |
| CAGCAGCAGCAGCAGCAGCAGCAGCAGCAG (structured_DNA, 8-oxoG in 2nd CAG repeat (G6)) [Stem-HP] | – | no binding |
